Earlier results on one molecule are cited in US20230173142A1, “BALLISTIC DELIVERY TO MULTILAYERED TISSUES AND RELATED PARTICLES, COMPOSITIONS, METHODS AND SYSTEMS” (CALIFORNIA INSTITUTE OF TECHNOLOGY, priority 2021, published 2023).

In the series the test system is wound healing. Particulars: Material: Nanofiber.

B1: G-CSF: granulocyte colony-stimulating factor (protein, UniProt P09919 31-207, looked up)
Granulocyte …: TPLGPASSLPQSFLLKCLEQVRKIQGDGAALQEKLVSECATYKLCHPEELVLLGHSLGIPWAPLSSCPSQALQLAGCLSQLHSGLFLYQGLLQALEGISPELGPTLDTLQLDVADFATTIWQQMEELGMAPALQPTQGAMPAFASAFQRRAGGVLVASHLQSFLEVSYRVLRHLAQP
B1: the Effect result is recorded as “Improved wound closure, scar reduction, fibroblast maturation, as well”.
